# Molecular target: T1, B.1.1.529 (BA.1) S1 + S2 trimer-His Recombinant Protein (SARS-CoV-2 Omicron BA.1 (B.1.1.529), strain)
# T1 construct: also called Omicron BA.1 trimeric spike; BA.1 spike
# Experiment: cryo-EM structure
# Conditions: both partners purified
binder,measurement,value
"17T2 Fab fragment (Fab, V domains shown, also called Fab 17T2) VH: QVQLVQSGPEVKKPGTSVKVSCKAPVFTFSISAVQWVRQARGQRLEWIGWIVVGSGNTNYAQNFQERVTITTDMSTGTVYMELSGLRSEDTAMYYCAAPYCNRTTCYDGFDLWGQGTMVTVSS VL: EIVLTQSPGTLSLSPGERATLSCRASQSISSNYLAWYQQKPGQAPRLLIYGASSRATGIPDRFSGSGSGTDFTLSINRLEPEDFAMYYCQHYGGLSRWTFGQGTKVEIK",stoichiometry N,3 Fab per spike trimer

# — PMC10844294, “A monoclonal antibody targeting a large surface of the receptor binding motif shows pan-neutralizing SARS-CoV-2 activity” (Nature Communications, 2024)
